Data reported in patent US20160136236A1.

What was measured:
[1] = biological target: wild type (WT) human low density lipoprotein receptor (LDLR) (human) (UniProt P01130); assay: flow cytometry competition; 0.5 ug/mL LDL-BODIPY with 100 ug/mL unlabeled LDL on HEK293 cells transfected with LDLR mRNA
[2] = biological target: wild type (WT) human low density lipoprotein receptor (LDLR) (human) (UniProt P01130); assay: flow cytometry competition; 0.5 ug/mL LDL-BODIPY with 0.5 ug/mL unlabeled LDL on HEK293 cells transfected with LDLR mRNA
[3] = biological target: wild type (WT) human low density lipoprotein receptor (LDLR) (human) (UniProt P01130); assay: flow cytometry competition; 0.5 ug/mL LDL-BODIPY with 10 ug/mL unlabeled LDL on HEK293 cells transfected with LDLR mRNA
[4] = biological target: wild type (WT) human low density lipoprotein receptor (LDLR) (human) (UniProt P01130); assay: flow cytometry competition; 0.5 ug/mL LDL-BODIPY with 0.01 ug/mL unlabeled LDL on HEK293 cells transfected with LDLR mRNA
[5] = biological target: wild type (WT) human low density lipoprotein receptor (LDLR) (human) (UniProt P01130); assay: flow cytometry competition; 0.5 ug/mL LDL-BODIPY with 0.1 ug/mL unlabeled LDL on HEK293 cells transfected with LDLR mRNA
[6] = biological target: wild type (WT) human low density lipoprotein receptor (LDLR) (human) (UniProt P01130); assay: flow cytometry competition; 0.5 ug/mL LDL-BODIPY with 500 ug/mL unlabeled LDL on HEK293 cells transfected with LDLR mRNA
[7] = biological target: wild type (WT) human low density lipoprotein receptor (LDLR) (human) (UniProt P01130); assay: flow cytometry competition; 0.5 ug/mL LDL-BODIPY with 0 ug/mL unlabeled LDL on HEK293 cells transfected with LDLR mRNA
[8] = biological target: wild type (WT) human low density lipoprotein receptor (LDLR) (human) (UniProt P01130); assay: flow cytometry competition; 0.5 ug/mL LDL-BODIPY with 1 ug/mL unlabeled LDL on HEK293 cells transfected with LDLR mRNA

Sequence of wild type (WT) human low density lipoprotein receptor (LDLR) (human) (P01130 22-860 limits assumed): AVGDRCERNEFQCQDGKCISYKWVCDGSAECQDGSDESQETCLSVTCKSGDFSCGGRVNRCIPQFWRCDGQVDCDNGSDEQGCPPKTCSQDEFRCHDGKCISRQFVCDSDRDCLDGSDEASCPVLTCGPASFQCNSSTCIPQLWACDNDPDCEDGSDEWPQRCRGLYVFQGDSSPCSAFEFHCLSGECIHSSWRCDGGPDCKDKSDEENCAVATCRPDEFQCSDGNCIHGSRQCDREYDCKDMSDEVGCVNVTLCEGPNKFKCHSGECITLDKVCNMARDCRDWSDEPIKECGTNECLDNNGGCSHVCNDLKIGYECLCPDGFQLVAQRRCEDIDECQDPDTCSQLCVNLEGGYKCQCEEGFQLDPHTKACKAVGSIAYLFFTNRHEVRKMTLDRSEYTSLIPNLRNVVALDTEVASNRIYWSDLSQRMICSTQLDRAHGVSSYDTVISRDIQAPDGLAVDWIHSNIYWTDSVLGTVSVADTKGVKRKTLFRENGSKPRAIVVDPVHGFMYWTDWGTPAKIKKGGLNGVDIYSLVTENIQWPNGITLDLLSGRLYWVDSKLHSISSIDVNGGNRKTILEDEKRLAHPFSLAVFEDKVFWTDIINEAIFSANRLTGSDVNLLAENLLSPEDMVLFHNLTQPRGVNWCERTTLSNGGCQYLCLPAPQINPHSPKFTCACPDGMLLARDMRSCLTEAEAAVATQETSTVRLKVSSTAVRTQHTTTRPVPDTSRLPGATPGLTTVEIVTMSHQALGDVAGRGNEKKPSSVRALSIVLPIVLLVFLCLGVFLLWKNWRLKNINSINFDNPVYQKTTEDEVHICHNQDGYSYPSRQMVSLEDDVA

Work on “unlabeled LDL (low density lipoprotein), P04114 28-4563” yielded a Labeled cells detected (%) [1] of 3.2%, a Labeled cells detected (%) [2] of 64.1% and a Labeled cells detected (%) [3] of 48.4%. For the same substance, the Labeled cells detected (%) [4] was 97.7%, the Labeled cells detected (%) [5] was 59% and the Labeled cells detected (%) [6] was 0.9%. For the same substance, the Labeled cells detected (%) [7] was 100% and the Labeled cells detected (%) [8] was 76%.
